Test results published in article doi:10.1101/681668 (bioRxiv, 2019).
Where a chain is given by its changes, count along the chain named.

Key:
Assay in all cases: pull-down
[1] = molecular target: T1, MBP-ORC1 CDK12 (human, UniProt Q13415 1-861, S258A | S273A)
T1 sequence: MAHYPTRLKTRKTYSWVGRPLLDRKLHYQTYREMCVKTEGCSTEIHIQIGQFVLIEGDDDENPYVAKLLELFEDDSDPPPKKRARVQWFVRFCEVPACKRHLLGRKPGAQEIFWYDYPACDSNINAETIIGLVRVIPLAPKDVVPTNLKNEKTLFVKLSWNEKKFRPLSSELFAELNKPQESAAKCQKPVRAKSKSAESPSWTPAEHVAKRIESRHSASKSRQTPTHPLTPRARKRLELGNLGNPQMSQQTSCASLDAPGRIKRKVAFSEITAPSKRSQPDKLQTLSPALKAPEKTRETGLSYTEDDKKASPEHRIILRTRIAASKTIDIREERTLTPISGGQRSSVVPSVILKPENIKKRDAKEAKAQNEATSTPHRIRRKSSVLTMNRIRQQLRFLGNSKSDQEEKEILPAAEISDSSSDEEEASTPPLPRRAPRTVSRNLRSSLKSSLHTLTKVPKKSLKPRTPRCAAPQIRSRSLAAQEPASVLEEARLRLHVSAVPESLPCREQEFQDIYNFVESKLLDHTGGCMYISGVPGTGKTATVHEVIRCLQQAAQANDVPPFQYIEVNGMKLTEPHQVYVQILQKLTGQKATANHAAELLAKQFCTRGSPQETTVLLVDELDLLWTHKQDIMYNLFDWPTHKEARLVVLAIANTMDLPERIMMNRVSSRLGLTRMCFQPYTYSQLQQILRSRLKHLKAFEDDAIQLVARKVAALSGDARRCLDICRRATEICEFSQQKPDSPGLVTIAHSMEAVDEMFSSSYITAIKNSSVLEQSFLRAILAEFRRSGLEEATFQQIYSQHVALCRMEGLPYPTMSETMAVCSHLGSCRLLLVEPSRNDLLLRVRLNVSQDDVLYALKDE

[2] = molecular target: T2, MBP-ORC2 (human, UniProt Q13416 1-577)
T2 sequence: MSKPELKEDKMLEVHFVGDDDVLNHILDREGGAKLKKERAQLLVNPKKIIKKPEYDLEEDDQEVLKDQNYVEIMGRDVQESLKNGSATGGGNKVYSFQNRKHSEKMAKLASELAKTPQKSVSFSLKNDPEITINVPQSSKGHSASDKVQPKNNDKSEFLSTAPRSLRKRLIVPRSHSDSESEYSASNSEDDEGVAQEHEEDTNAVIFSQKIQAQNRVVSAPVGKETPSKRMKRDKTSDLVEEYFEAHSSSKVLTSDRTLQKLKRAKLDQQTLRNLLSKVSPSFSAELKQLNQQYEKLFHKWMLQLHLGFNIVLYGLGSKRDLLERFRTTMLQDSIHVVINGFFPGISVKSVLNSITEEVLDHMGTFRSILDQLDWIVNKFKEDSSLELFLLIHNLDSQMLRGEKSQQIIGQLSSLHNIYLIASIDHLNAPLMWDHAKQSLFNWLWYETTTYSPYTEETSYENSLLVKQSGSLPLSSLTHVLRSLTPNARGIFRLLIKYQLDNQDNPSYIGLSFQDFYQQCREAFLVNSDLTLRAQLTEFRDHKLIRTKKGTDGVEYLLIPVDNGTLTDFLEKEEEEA

[3] = molecular target: T3, MBP-ORC1 A-A (human, UniProt Q13415 1-861, 235KRL237 to 235ARA237)
T3 sequence: T1 sequence with K235A, L237A, A258S, A273S

Measured: binding result

B1: GST-CDC6 (natural protein)
chain: MPQTRSQAQATISFPKRKLSRALNKAKNSSDAKLEPTNVQTVTCSPRVKALPLSPRKRLGDDNLCNTPHLPPCSPPKQGKKENGPPHSHTLKGRRLVFDNQLTIKSPSKRELAKVHQNKILSSVRKSQEITTNSEQRCPLKKESACVRLFKQEGTCYQQAKLVLNTAVPDRLPAREREMDVIRNFLREHICGKKAGSLYLSGAPGTGKTACLSRILQDLKKELKGFKTIMLNCMSLRTAQAVFPAIAQEICQEEVSRPAGKDMMRKLEKHMTAEKGPMIVLVLDEMDQLDSKGQDVLYTLFEWPWLSNSHLVLIGIANTLDLTDRILPRLQAREKCKPQLLNFPPYTRNQIVTILQDRLNQVSRDQVLDNAAVQFCARKVSAVSGDVRKALDVCRRAIEIVESDVKSQTILKPLSECKSPSEPLIPKRVGLIHISQVISEVDGNRMTLSQEGAQDSFPLQQKILVCSLMLLIRQLKIKEVTLGKLYEAYSKVCRKQQVAAVDQSECLSLSGLLEARGILGLKRNKETRLTKVFFKIEEKEIEHALKDKALIGNILATGLP
binds: all assays above
